This note sets out measurements from PMC12396273.

What all share (test): fluorescence polarisation
(In fluorescence polarisation assays a small probe gives low polarisation when free and higher when bound to something large.)

Assay [1] addresses Human BCL-2 removing the C-terminal 32 residues, C-terminal 6×His-tag (human) (UniProt P10415).
The target of assay [2] is Human BCL-XL removing the C-terminal 22 residues, C-terminal 6×His-tag (human) (UniProt Q07817).
Assay [3] has as its target FITC-labelled HRK-BH3 peptide.

A word on the Ki: it is the equilibrium dissociation constant of an inhibitor or competing ligand from its target. A high value points to a looser hold on the target. Broadly, the EC50 is the concentration that produces a half-maximal response.

Sequence of UniProt Q07817 (Q07817 1-211): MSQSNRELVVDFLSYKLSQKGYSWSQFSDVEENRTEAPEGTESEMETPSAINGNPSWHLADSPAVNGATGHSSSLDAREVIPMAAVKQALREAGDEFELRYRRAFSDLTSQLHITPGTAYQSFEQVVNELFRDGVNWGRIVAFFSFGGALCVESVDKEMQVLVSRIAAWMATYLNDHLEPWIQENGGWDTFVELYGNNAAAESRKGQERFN

For the substance wild-type HRK-BH3 peptide (HRK-WT), the Ki in assay [1] came to 36 nM; in assay [2], 1.8 nM.

Take “Human BCL-2 removing the C-terminal 32 residues, C-terminal 6×His-tag (from UniProt P10415 1-207) (domain or fragment)”: the EC50 in assay [3] is 30 nM.
